Our source for the Kd values is PMC7817217 (2020).

In the assay the target is SARS-CoV-2 spike protein receptor binding domain (RBD) (SARS-CoV-2, UniProt P0DTC2 319-541). Description: SPR.

B1: bACE2-Rm residues 19 to 615 fused to the mouse Fc tag (bACE2-Rm-mFc) (Fc fusion)
chain: STTEDEAKKFLDKFNSKAEDLSYESSLASWDYNTNISDENVQKMDEAGAKWSAFYEEQSKLAKNYPLEEIQNDTVKRQLQILQQSGSPVLSEDKSKRLNSILNAMSTIYSTGKVCKPNNPQECLLLEPGLDNIMGTSKDYNERLWAWEGWRAEVGKQLRPLYEEYVVLKNEMARGYHYEDYGDYWRRDYETEESSGPGYSRDQLMKDVDRIFTEIKPLYEHLHAYVRAKLMDTYPLHISPTGCLPAHLLGDMWGRFWTNLYPLTVPFGQKPNIDVTDAMLNQGWDANRIFKEAEKFFVSVSLPKMTEGFWNKSMLTEPGDGRKVVCHPTAWDLGKGDFRIKMCTKVTMEDFLTAHHEMGHIQYDMAYASQPYLLRNGANEGFHEAVGEVMSLSVATPKHLKTMGLLSPDFREDDETEINFLLKQALNIVGTLPFTYMLEKWRWMVFKGEIPKEEWMKKWWEMKREIVGVVEPVPHDETYCDPASLFHVANDYSFIRYYTRTIFEFQFHEALCRIAQHNGPLHKCDISNSTDAGKKLHQMLSVGKSQAWTKTLEDIVDSRNMDVGPLLRYFKPLYTWLQEQNRKSYVGWNTDWSPYAD
As a reminder, the Kd is a measure of binding affinity in units of concentration. A high value points to weaker binding. In turn, B1 registered an equilibrium dissociation constant (Kd) of 500 nM.
